The target of assay [1] is GLP-1 Δ4-5xGSA-GLP-1R (24–429)–TEV site–tTA (UniProt P43220).
In assay [2] the target is GLP-1 Δ5-5xGSA-GLP-1R (24–429)–TEV site–tTA (UniProt P43220).
In assay [3] the target is EX4-5xGSA-GLP-1R (24–429)–TEV site–tTA (Gila monster | human) (UniProt P43220).
Assay [4] deals with GLP-1-5xGSA-GLP-1R (24–429)–TEV site–tTA (UniProt P43220).
In assay [5] the target is human GLP-1R stably expressed in AD293 cells (GLP-1R/NlucP-293 cells) (human) (UniProt P43220).
The next assay concerns GLP-1R. The conditions noted are these: covalently attaches to C347; ref [34], [35]; cited from earlier work. An excerpt: GPCRs have been viewed as ‘allosteric machines’ [33] because many allosteric modulators have been identified binding outside the orthosteric pocket of the physiological activators to modulate endogenous agonist binding and function. […] Although mutating C347 to positively charged lysine or arginine ...

In the case of “ß-arrestin 1 fused with TEV protease (from UniProt P49407 1-418) (natural protein)”, the Tango assay (tTA/TRE-luc reporter) in HTL cells, relative to GLP-1-5GSA-FL (Δ0) (% of GLP-1-5GSA-FL (Δ0)) in assay [1] and in assay [2] was 50 throughout. The Tango assay (tTA/TRE-luc reporter) in HTL cells; arrestin recruiting signal against the unfused receptor with 1 μM hormone in assay [3] and in assay [4] was 150 each time.

As to GLP-1(9–37) (peptide), in assay [5], the cAMP signal (CRE-NanoLuc luciferase reporter) in GLP-1R/NlucP-293 cells; potency (EC50) of full-length GLP-1 over that of the truncated GLP-1 turned out to be 1000 fold.

`CC[S+]([O-])c1nc(-c2cccc(OCc3ccccc3)c2)cc(C(F)(F)F)n1` (stereo not drawn) [BETP, 4-(3-(Benzyloxy)phenyl)-2-ethylsulfinyl-6 (trifluoromethyl)pyrimidine]: the “allosteric modulation of GLP-1R” value in the assay on GLP-1R is reported as “positive allosteric modulator”.

(Values after article PMC5118412 (Cell Discovery, 2016).)
